Read-outs that look alike come from different tables or passages of the source. Each block holds one substance with its values, some of them ahead of it.
Key:
Conditions in all cases: ligand
[1] = molecular target: human insulin receptor isoform A (human) (UniProt P06213)
[2] = molecular target: human IGF-1 receptor (human) (UniProt P08069)
[3] = molecular target: human IGF-1 receptor (human) (UniProt P08069); remark: listed apart in the source
[4] = molecular target: human insulin receptor isoform A (human) (UniProt P06213); remark: listed apart in the source
[5] = molecular target: human IGF-1 receptor (human) (UniProt P08069); remark: listed apart in the source
[6] = molecular target: human insulin receptor isoform A (human) (UniProt P06213); remark: listed apart in the source
[7] = molecular target: human IGF-1 receptor (human) (UniProt P08069); remark: listed apart in the source
[8] = molecular target: human insulin receptor isoform A (human) (UniProt P06213); remark: listed apart in the source
[9] = molecular target: human IGF-1 receptor (human) (UniProt P08069); remark: listed apart in the source
[10] = molecular target: human insulin receptor isoform A (human) (UniProt P06213); remark: listed apart in the source

Sequence of UniProt P06213 (P06213 other isoform, or with tags, fused parts or gaps): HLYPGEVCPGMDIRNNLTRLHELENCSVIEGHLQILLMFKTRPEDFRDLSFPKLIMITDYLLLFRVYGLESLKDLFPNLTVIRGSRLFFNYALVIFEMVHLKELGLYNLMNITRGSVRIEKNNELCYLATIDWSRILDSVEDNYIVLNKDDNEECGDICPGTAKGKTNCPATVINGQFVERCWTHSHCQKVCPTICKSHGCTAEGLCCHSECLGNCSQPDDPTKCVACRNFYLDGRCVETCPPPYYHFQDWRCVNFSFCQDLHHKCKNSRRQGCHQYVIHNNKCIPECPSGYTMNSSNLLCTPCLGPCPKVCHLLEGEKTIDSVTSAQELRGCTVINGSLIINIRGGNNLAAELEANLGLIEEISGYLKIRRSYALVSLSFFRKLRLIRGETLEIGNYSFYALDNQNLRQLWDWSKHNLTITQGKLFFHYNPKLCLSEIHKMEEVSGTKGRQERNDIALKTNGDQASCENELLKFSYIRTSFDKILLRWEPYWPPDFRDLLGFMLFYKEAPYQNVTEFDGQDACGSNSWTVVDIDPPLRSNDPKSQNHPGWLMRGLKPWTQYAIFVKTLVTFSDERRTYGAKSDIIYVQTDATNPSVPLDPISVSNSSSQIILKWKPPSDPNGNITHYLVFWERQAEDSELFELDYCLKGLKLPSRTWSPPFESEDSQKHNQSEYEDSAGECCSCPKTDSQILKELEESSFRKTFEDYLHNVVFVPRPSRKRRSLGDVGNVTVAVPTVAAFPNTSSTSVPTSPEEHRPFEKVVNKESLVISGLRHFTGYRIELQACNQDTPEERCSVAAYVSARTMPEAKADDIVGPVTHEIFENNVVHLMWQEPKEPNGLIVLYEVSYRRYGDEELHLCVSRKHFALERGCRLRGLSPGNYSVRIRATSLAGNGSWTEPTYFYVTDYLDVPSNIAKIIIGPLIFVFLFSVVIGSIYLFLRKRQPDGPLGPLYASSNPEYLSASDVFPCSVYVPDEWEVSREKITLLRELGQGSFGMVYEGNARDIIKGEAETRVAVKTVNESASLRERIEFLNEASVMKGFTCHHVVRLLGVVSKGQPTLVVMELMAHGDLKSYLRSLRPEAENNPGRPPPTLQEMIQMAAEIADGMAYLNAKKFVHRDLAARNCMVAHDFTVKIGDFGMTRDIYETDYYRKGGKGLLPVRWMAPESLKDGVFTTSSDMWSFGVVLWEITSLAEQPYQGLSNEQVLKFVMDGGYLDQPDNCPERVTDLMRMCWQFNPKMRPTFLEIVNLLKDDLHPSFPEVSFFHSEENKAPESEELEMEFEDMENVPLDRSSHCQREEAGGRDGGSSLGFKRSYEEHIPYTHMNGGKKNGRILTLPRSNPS

Substance: Asp-57–IGF-2 (from UniProt P01344 49-115)
Kd [1]: 2.96 nM
Kd [2]: 0.5 nM

Substance: Val-53–IGF-2 (from UniProt P01344 49-115)
Kd [3]: 1.5 nM
Kd [4]: 2.9 nM

Substance: His-50–IGF-2 (from UniProt P01344 49-115)
Kd [5]: 1.6 nM
Kd [6]: 2.1 nM

Results, then the substance that gave them:

Kd [7]: 0.84 nM
Kd [8]: 2.7 nM
Substance: Thr-50–IGF-2 (from UniProt P01344 49-115)

Kd [9]: 1.2 nM
Kd [10]: 4.1 nM
Substance: His-53–IGF-2 (from UniProt P01344 49-115)

From paper PMC6873181
